# Experimental data published in paper PMC11025326 (Journal of Bacteriology, 2024).
# B1: 6xHisN-LapB^ΔTM (LapB^Δ1-22aa) (domain or fragment, S. Typhimurium, UniProt Q7CQG6 23-389, looked up)
# chain: SAQQTKQDEANRLSRDYVAGVNFLLSNQQDKAVDLFLDMLKEDTGTVEAHLTLGNLFRSRGEVDRAIRIHQTLMESASLTYEQRLLAVQQLGRDYMAAGLYDRAEDMFNQLTDETEFRVGALQQLLQIYQLTSDWQKAIEVAERLVKLGKDKQRIEIAHFYCELALQQMGNDDMDRAMALLKKGAAADKNSARVSIMMGRVYMARGDYAKAVESLQRVIVQDKELVSETLEMLQTCYQQLGKNAEWAEFLRRAVEENTGAGAELMLADILEAREGSDAAQVYITRQLQRHPTMRVFHKLMDYHLNEAEEGRAKESLMVLRDMVGEQVRSKPRYRCQKCGFTAYTLYWHCPSCRAWSTIKPIRGLDGQ
# notes: LPS assembly protein B (LapB/YciM), S. Typhimurium; transmembrane segment (residues 1-22) removed and replaced by an N-terminal polyhistidine tag; By calibrated gel filtration a homotrimer when alone, and two copies in the complex with one LpxC; also called 6xHisNLapB^Δ1-22; LapB cytosolic domain; source: E. coli BL21 (DE3), pACYC-Duet1, IPTG; in soluble lysate for the microscale co-purification; …
# Experiments:
# [1] = biological target: B1; assay: SEC; settings: both partners purified
# [2] = biological target: the molecule itself; assay: SEC; calibrated Superdex 200 Increase 10/300 GL; co-purified LapB^ΔTM-LpxC^Δ293-305 complex, 0.5 mg/mL; 20 mM HEPES, 300 mM NaCl, 10% glycerol, 1 mM DTT, pH 7.0
# [3] = biological target: the molecule itself; assay: SEC; calibrated Superdex 200 Increase 10/300 GL; purified LapB^ΔTM alone, 0.5 mg/mL; 20 mM HEPES, 300 mM NaCl, 10% glycerol, 1 mM DTT, pH 7.0
Binder,stoichiometry N [1] [LpxC per LapB chain],stoichiometry N [2],stoichiometry N [3]
"LpxC^Δ293-305-S-Tag (enzyme, not shown: S-tag, C-terminal, kept) MIKQRTLKRIVQATGVGLHTGKKVTLTLRPAPANTGVIYRRTDLNPPVDFPADAKSVRDTMLCTCLVNEHDVRISTVEHLNAALAGLGIDNIVIEVNAPEIPIMDGSAAPFVYLLLDAGIDELNCAKKFVRIKETVRVEDGDKWAEFRPYNGFTLDFTIDFNHPAIDSSSQRYAMNFSADAFMRQISRARTFGFMRDIEYLQSRGLCLGGSFDCAIVVDDYRVLNEDGLRFEDEFVRHKMLDAIGDLFMCGHNIIGAFTAYKSGHALNNKLLQAVLAKQEAWEFVTFQDDAE",0.5,–,–
B1,–,2,3
